From publication PMC5786021, “A dynamic allosteric pathway underlies Rad50 ABC ATPase function in DNA repair” (Scientific Reports, 2018)

How the values were obtained:
Assay in all cases: reconstitution and co-purification by ion-exchange chromatography; Rad50^NBD mixed with a slight excess of Mre11^HLH, heated at 60 °C for 10 min, cooled, complex purified on a HiTrap SP HP column; complex then used for methyl-TROSY NMR at 50 °C
Details in all cases: both partners purified
[1] = molecular target: T1, P. furiosus Rad50^NBD (R805E) (P. furiosus, UniProt P58301 1-195; P58301 709-882, R805E)
T1 construct: Rad50, Pyrococcus furiosus, N-terminal ABC-ATPase sub-domain, residues 1-195; flexible linker that replaces the coiled-coil and Zn-hook; Rad50, Pyrococcus furiosus, C-terminal ABC-ATPase sub-domain, residues 709-882; Point mutation made by Quikchange in the Rad50^NBD construct; also called basic switch mutant; source: E. coli BL21(DE3) C41, purified (HisTrap, HiTrap SP, Superdex 200)

[2] = molecular target: T2, P. furiosus Rad50^NBD (V156M) (P. furiosus, UniProt P58301 1-195; P58301 709-882, V156M)
T2 construct: Rad50, Pyrococcus furiosus, N-terminal ABC-ATPase sub-domain, residues 1-195; flexible linker that replaces the coiled-coil and Zn-hook; Rad50, Pyrococcus furiosus, C-terminal ABC-ATPase sub-domain, residues 709-882; Point mutation made by Quikchange in the Rad50^NBD construct; source: E. coli BL21(DE3) C41, purified (HisTrap, HiTrap SP, Superdex 200)

[3] = molecular target: T3, P. furiosus Rad50^NBD (V157M) (P. furiosus, UniProt P58301 1-195; P58301 709-882, V157M)
T3 construct: Rad50, Pyrococcus furiosus, N-terminal ABC-ATPase sub-domain, residues 1-195; flexible linker that replaces the coiled-coil and Zn-hook; Rad50, Pyrococcus furiosus, C-terminal ABC-ATPase sub-domain, residues 709-882; Point mutation made by Quikchange in the Rad50^NBD construct; source: E. coli BL21(DE3) C41, purified (HisTrap, HiTrap SP, Superdex 200)

[4] = molecular target: T4, P. furiosus Rad50^NBD (V160M) (P. furiosus, UniProt P58301 1-195; P58301 709-882, V160M)
T4 construct: Rad50, Pyrococcus furiosus, N-terminal ABC-ATPase sub-domain, residues 1-195; flexible linker that replaces the coiled-coil and Zn-hook; Rad50, Pyrococcus furiosus, C-terminal ABC-ATPase sub-domain, residues 709-882; Point mutation made by Quikchange in the Rad50^NBD construct; source: E. coli BL21(DE3) C41, purified (HisTrap, HiTrap SP, Superdex 200)
T4 sequence (P58301 other isoform, or with tags, fused parts or gaps V160M | V160M | V160M V160M): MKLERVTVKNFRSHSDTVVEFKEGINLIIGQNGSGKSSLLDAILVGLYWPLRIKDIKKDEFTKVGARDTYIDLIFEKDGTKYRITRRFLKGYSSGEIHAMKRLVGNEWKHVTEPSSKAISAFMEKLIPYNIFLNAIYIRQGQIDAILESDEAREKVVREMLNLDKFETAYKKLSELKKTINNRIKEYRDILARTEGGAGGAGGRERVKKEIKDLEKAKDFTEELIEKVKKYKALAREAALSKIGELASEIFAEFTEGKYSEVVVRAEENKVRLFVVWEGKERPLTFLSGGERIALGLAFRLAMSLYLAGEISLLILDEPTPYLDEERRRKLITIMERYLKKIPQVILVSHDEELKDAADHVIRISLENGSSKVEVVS

T2 sequence (P58301 other isoform, or with tags, fused parts or gaps V156M | V156M | V156M V156M): as the sequence (P58301 other isoform, or with tags, fused parts or gaps V160M | V160M | V160M V160M) above, with V156M, M160V counted along it
T3 sequence (P58301 other isoform, or with tags, fused parts or gaps V157M | V157M | V157M V157M): as the sequence (P58301 other isoform, or with tags, fused parts or gaps V160M | V160M | V160M V160M) above, with V157M, M160V counted along it
T1 sequence (P58301 other isoform, or with tags, fused parts or gaps R805E | R805E | R805E R805E): as the sequence (P58301 other isoform, or with tags, fused parts or gaps V160M | V160M | V160M V160M) above, with M160V, R300E counted along it

binding result [1]: binds
binding result [2]: binds
binding result [3]: binds
binding result [4]: binds
B1: P. furiosus Mre11 helix-loop-helix domain (Mre11^HLH, aa344-426) (domain or fragment)
chain: not shown
notes: Mre11, Pyrococcus furiosus, helix-loop-helix domain, residues 344-426, sub-cloned from codon optimized full-length Pf Mre11; Protonated (unlabelled) in the NMR samples; source: E. coli BL21(DE3) C41, purified (HisTrap, HiTrap Phenyl HP); not shown: NusA, N-terminal, cleaved; His6, N-terminal, cleaved
